Experimental data reported in patent US20260191907A1 (INSTITUT CURIE, published 2026).

B1: B1 nanobody (anti-FGFR4 sdAb, NaLi-H1 library) (VHH)
VHH: EVQLQASGGGFVQPGGSLRLSCAASGYTSRSSAMGWFRQAPGKEREFVSAISDLTGYPYYYADSVKGRFTISRDNSKNTVYLQMNSLRAEDTATYYCAAYQDDKWTYGSQHGKYWGQGTQVTVSS
notes: also called B1 sdAb; not shown: C-terminal Myc/6xHis-tag and an additional cysteine
B2: B5 nanobody (anti-FGFR4 sdAb, NaLi-H1 library) (VHH)
VHH: EVQLQASGGGFVQPGGSLRLSCAASGRTSWLTTMGWFRQAPGKEREFVSAISSFSSKQGYYADSVKGRFTISRDNSKNTVYLQMNSLRAEDTATYYCAYASYPRHQGNGRWKDFVEYWGQGTQVTVSS
notes: Recombinant nanobody of about 17 kDa; also called B5 sdAb; not shown: C-terminal Myc/6xHis-tag and an additional cysteine
B3: F8 nanobody (anti-FGFR4 sdAb, Gimli library) (VHH)
VHH: EVQLVESGGGLVQPGGSLRLSCAASGTGYALDDMGWVRQAPGKGLEWVSAISDDESMADYYADSVKGRFTISRDNSKNTVYLQMNSLRAEDTAVYYCASYKEYKYQSGHHYFAYRGQGTLVTVSS
notes: Recombinant nanobody of about 17 kDa; also called F8 sdAb; not shown: C-terminal Myc/6xHis-tag and an additional cysteine
B4: A8 nanobody (anti-FGFR4 sdAb, NaLi-H1 library) (VHH)
VHH: EVQLQASGGGFVQPGGSLRLSCAASGRTYSRDTMGWFRQAPGKEREFVSAISSRHSHTTYYADSVKGRFTISRDNSKNTVYLQMNSLRAEDTATYYCAEWDVFDMHYALPPMWYWGQGTQVTVSS
notes: also called A8 sdAb; not shown: C-terminal Myc/6xHis-tag and an additional cysteine

Biological target: T1, Recombinant FGFR1 (G&P Biosciences) (UniProt P11362 22-376, limits assumed)
T1 construct: Immobilised on the SPR chip
T1 sequence (looked up): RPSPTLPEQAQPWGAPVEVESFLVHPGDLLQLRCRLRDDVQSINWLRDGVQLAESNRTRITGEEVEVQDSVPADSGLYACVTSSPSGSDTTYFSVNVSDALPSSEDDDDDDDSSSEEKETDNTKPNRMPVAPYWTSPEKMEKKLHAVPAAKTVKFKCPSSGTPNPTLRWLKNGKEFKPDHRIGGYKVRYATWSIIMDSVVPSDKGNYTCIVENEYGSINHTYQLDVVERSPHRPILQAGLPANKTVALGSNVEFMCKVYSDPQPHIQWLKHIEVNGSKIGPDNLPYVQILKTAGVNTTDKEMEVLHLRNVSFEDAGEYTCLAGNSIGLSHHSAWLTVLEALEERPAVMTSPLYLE
Assay: SPR, FGFR1 immobilised, nanobody as analyte at five concentrations
Procedure: (§1) Single cycle kinetics analysis was performed with the BIAcore® T200 instrument (GE Healthcare) on CMD200M sensor chips (XanTec bioanalytics GmbH) activated with a mixture of 300 mM NHS (N-hydroxysuccinimide) and 50 mM EDC (N-ethyl-N′-(dimethylaminopropyl) carbodiimide). Recombinant FGFR1, FGFR2, FGFR3 and FGFR4 (G&P Biosciences) were immobilized on the activated biosensors (800 to 12′000 RU; 1 RU=1 pg/mm²) followed by a blocking step with 1M ethanolamine. One flow channel per chip was used as a reference to provide background corrections. The nanobodies were injected at 5 different concentrations followed by a dissociation phase. Koff-rates were determined from a final dissociation step after the last injection. The measurements with FGFR4 were performed for each nanobody on freshly immobilized protein due to strong binding and incomplete dissociation from the surface. Immobilization flow rate was 5 μl/min and binding studies were performed at 30 μl/min. Binding parameters were determined with the heterogeneous ligand model fit of the BIAevaluation software. The black curves represent the measured data and red curves show the performed fit analysis.
To determine the binding affinity of the nanobodies to FGFR4, we performed surface plasmon resonance (SPR) spectroscopy with recombinant FGFR4. As already mentioned above, FGFR1 and FGFR2 are expressed on Rh4-FR4ko cells and flow cytometry analysis indicated no binding of the nanobodies to the cells. To further confirm FGFR4-specificity, we included also affinity measurements with recombinant FGFR1, FGFR2 and FGFR3. Nanobodies A8, B1, B5, F8, and mCh were injected in five different concentrations on a FGFR coated chip. Except for the negative control mCh, calculated KD values for FGFR4 binding were in the nano- and picomolar range (FIG. 3; Table 2). Affinity parameters could not be fitted with a 1:1 binding model and best fits were obtained with the heterogeneous ligand model of the BIAevaluation software resulting in two KD values for each candidate.

Binder	binding result
B1	no binding
B2	no binding
B3	no binding
B4	no binding

Biological target: T2, FGFR4 expressed on the surface of RMS cells (Rh4-FR4 wt, Rh30) (human, UniProt P22455 22-802)
T2 construct: Endogenous FGFR4 of the rhabdomyosarcoma cell lines; The whole entry includes the signal peptide; also called cell-surface FGFR4; Rh4-FR4 wt cells
Assay: flow cytometry, recombinant nanobody at 30 µg/ml on Rh4-FR4 wt cells, anti-6xHis-FITC detection
Procedure: Control cells (C) were either not stimulated or stimulated with FGF19 in absence of the nanobodies. The cell lysates were analysed by western blot with anti phospho ERK1/2 antibody. Total Erk1/2 levels are shown as loading control.
Binding validation of selected phages, recombinant nanobodies and decorated liposomes was performed on Rh4-FR4 wt and Rh4-FR4ko cells. Specificity of selected phage clones binding to FGFR4 was determined by flow cytometry in 96-well plates (Becton Dickinson). Cell surface staining of Rh4-FR4 wt or Rh4-FR4ko cells was performed on ice in PBS supplemented with 1% FBS. 80 μL phages+20 μL PBS/1% milk were incubated on 1×10⁵ cells for 1 h on ice. […] Samples were analyzed after two washes by flow cytometry on a MACSQuant® cytometer (Miltenyi) and results were analyzed with FlowJo™ software (BD Biosciences, France). Phages displaying anti-mCherry nanobodies were used as negative control²⁴ and as positive control we used an anti-FGFR4 antibody (BT53, kindly provided by J. Khan lab, NCI, Bethesda, MD). For binding test of recombinant nanobodies, cells were detached with Accutase® (Stemcell Technologies) and washed with PBS. All following steps were performed on ice: 4×10⁵ cells were incubated with nanobody concentrations of 30 μg/ml for 1 h, washed once with PBS and incubated for an additional 30 min with anti His-tag FITC labeled antibody (LS-C57341, LSBioscience, diluted 1:10). The cells were washed once more with PBS and analyzed. Targeting liposomes were added at 0.5 mM final lipid concentration to cells in 96-well plates and incubated for 2 h at 37° C. and 5% CO₂. The cells were washed twice with PBS and detached with Accutase®.
Validation of the binding of recombinant nanobodies to cell-surface expressed FGFR4 was performed with Rh4-FR4 wt and Rh4-FR4ko cells by flow cytometry. A FITC-labeled anti-6×His-tag antibody was used to detect surface-bound nanobodies.

Binder	median fluorescence intensity (MFI)
B1	~400 MFI
B2	~400 MFI
B3	~400 MFI
B4	~400 MFI

Biological target: T3, Recombinant FGFR4 (G&P Biosciences) (human, UniProt P22455 22-369)
T3 construct: Bought protein; the SPR method says only 'Recombinant; also called rFGFR4; extracellular FGFR4
T3 sequence: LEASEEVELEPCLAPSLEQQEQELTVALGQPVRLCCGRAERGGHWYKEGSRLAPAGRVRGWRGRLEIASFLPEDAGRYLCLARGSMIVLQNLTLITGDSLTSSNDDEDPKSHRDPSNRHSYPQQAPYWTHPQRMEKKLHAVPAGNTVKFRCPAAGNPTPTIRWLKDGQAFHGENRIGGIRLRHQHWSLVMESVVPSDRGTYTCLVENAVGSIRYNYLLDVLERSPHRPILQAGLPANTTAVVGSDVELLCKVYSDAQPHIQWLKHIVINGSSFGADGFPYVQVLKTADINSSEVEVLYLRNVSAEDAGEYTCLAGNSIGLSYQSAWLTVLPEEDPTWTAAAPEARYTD
Assay: SPR (BIAcore T200), single cycle kinetics, FGFR4 amine-immobilised, nanobody as analyte, heterogeneous ligand model, component 1 (kon1)
Procedure: FIG. 3: Affinity determination of nanobodies to recombinant protein via surface plasmon resonance spectroscopy. Single cycle kinetics analysis was performed on immobilized FGFR4 through covalent amine binding on the dextran based sensor chip. The analytes A8, B1, B5, F8 and mCh were injected in 5 different concentrations followed by a dissociation phase. A final dissociation step was added after the last injection step to determine Koff rates for the KD calculations. The black curves represent the measured data and red curves show the fit analysis (heterogeneous ligand model) performed with the BIAevaluation software.
as §1
To determine the binding affinity of the nanobodies to FGFR4, we performed surface plasmon resonance (SPR) spectroscopy with recombinant FGFR4. As already mentioned above, FGFR1 and FGFR2 are expressed on Rh4-FR4ko cells and flow cytometry analysis indicated no binding of the nanobodies to the cells. To further confirm FGFR4-specificity, we included also affinity measurements with recombinant FGFR1, FGFR2 and FGFR3. Nanobodies A8, B1, B5, F8, and mCh were injected in five different concentrations on a FGFR coated chip.

Binder	kon
B1	1.11e+06 M⁻¹ s⁻¹
B2	1.84e+06 M⁻¹ s⁻¹
B3	54500 M⁻¹ s⁻¹
B4	314000 M⁻¹ s⁻¹
